Laboratory results as given in paper PMC7653511 (Journal of immunology (Baltimore, Md. : 1950), 2020).

Assays:
Mamu-E = type: binding, rhesus macaques; settings: s/p ratio, at least two independent experiments
HLA-E*01:03 = HLA-E*01:03 (Homo sapiens, UniProt P13747); assay: UV-mediated peptide exchange binding assay; settings: s/p ratio, at least two independent experiments
HLA-E*01:01 = HLA-E*01:01 (Homo sapiens, UniProt P13747, G128R); assay: UV-mediated peptide exchange binding assay; settings: s/p ratio, at least two independent experiments
Qa-1^b = Qa-1^b (Mus musculus, UniProt P06339); assay: UV-mediated peptide exchange binding assay; parameters: species or system mice; settings: s/p ratio, at least two independent experiments
[1] = Aggregation of the proteins with norleucine fluorescent standard peptide; type: physicochemical; settings: norleucine vs methionine in position 2 of fluorescent standard peptide
[2] = biological target: HLA-E*01:01 heavy chain with human β2-microglobulin (human); assay: HPLC size exclusion chromatography peptide competition binding assay
[3] = biological target: HLA-E*01:03 heavy chain with human β2-microglobulin (human); assay: as above
HLA-E = settings: no reference given; cited from earlier work
[4] = biological target: HLA-E*01:01 heavy chain with human β2-microglobulin (human); assay: HPLC size exclusion chromatograph
[5] = biological target: HLA-E*01:03 heavy chain with human β2-microglobulin (human); assay: HPLC size exclusion chromatograph

Substance | Effect of alanine substitution on binding (Mamu-E) | Effect of alanine substitution on binding (HLA-E*01:03) | Effect of alanine substitution on binding (HLA-E*01:01) | Effect of alanine substitution on binding (Qa-1^b) | also measured
pCMV P2-Ala: pCMV with Ala in position 2 (VAAPRTLLL) | considerable loss of binding | considerable loss of binding | considerable loss of binding | considerable loss of binding | 
VXAPCTLLL |  |  |  |  | Unspecific aggregation of the proteins [1]: reduced unspecific aggregation of the proteins
Qdm (peptide) |  |  |  |  | IC50 [2]: < 100 µM; IC50 [3]: < 100 µM
pCMV P9-Ala: pCMV with Ala in position 9 (VLAPRTLLA) | complete or almost complete loss of binding | complete or almost complete loss of binding | complete or almost complete loss of binding | complete or almost complete loss of binding | 
VLAPRTLLL [pCMV] |  |  |  |  | Known binding to HLA-E of control peptides (HLA-E): high binding capacity to HLA-E
VL9 (peptide) |  |  |  |  | IC50 [4]: < 100 µM; IC50 [5]: < 100 µM
pCMV P7-Ala: pCMV with Ala in position 7 (VLAPRTALL) | complete or almost complete loss of binding | complete or almost complete loss of binding | complete or almost complete loss of binding | complete or almost complete loss of binding | 
